{"source": "patent US20050032064", "target": "PPAR GAMMA (Mus musculus) (UniProt P37238)", "test": "cell_activity", "conditions": "HepG2 per text (Cos per legend); induction vs empty pSG5; amplified by rosiglitazone", "data": [{"substance": "(Rev-DR2)x2 SV40 promoter luciferase reporter", "values": [{"measurement": "activity", "value": 2.5, "unit": "fold"}]}]}
